Experiment [1] has as its target β-lactamase obtained from Bacillus cereus 569H (Bacillus cereus 569H).
In experiment [2] the target is KPC-2 carbapenemase (Klebsiella pneumoniae carbapenemase 2) (Klebsiella pneumoniae (endogenous in ATCC BAA-1705)) (UniProt Q9F663).
Experiment [3] addresses β-lactamase obtained from Bacillus cereus 569H (Bacillus cereus 569H). This is another data set of the same source.

UniProt Q9F663, sequence (Q9F663 25-293): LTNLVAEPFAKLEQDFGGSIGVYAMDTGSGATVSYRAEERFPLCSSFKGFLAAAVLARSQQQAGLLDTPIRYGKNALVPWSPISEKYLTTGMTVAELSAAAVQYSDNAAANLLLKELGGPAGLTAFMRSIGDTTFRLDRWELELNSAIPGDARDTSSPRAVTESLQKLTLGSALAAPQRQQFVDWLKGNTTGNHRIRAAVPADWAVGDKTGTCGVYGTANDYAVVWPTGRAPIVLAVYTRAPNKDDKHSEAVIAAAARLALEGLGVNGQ

B1: truncated BLIP-II (tBLIP-II), β-lactamase inhibitory protein-II without its signal sequence (natural protein)
chain: ATSVVAWGGNNDWGEATVPAEAQSGVDAIAGGYFHGLALKGGKVLGWGANLNGQLTMPAATQSGVDAIAAGNYHSLALKDGEVIAWGGNEDGQTTVPAEARSGVDAIAAGAWASYALKDGKVIAWGDDSDGQTTVPAEAQSGVTALDGGVYTALAVKNGGVIAWGDNYFGQTTVPAEAQSGVDDVAGGIFHSLALKDGKVIAWGDNRYKQTTVPTEALSGVSAIASGEWYSLALKNGKVIAWGSSRTAPSSVQSGVSSIEAGPNAAYALKG
Regarding B1, in experiment [1], the IC50 of inhibition of nitrocefin hydrolysis by the β-lactamase (inhibitor 0.0078-2 μM, pre-incubated 15 min at 30°C, absorbance at 490 nM) came to 51.1 nM. Further, the MIC of meropenem against K. pneumoniae ATCC BAA-1705 (bla KPC-2 positive) with 10 or 20 μM protein (16 μg/mL without protein; 8 at both concentrations) in experiment [2] turned out to be 8 µg/mL. Besides, the reduction in β-lactamase activity (nitrocefin hydrolysis) at 0.0625 μM inhibitor; constant at higher concentrations up to 2 μM in experiment [3] amounted to 70%.

The record behind these values is publication PMC10817188.
